Numbering of substitutions follows the chain as printed. Names and notes keep the numbering of the source.
B1: S25E: FoxM1 phosphorylated point mutant of the S25 residue, expressed by lentivirus in A549 cells (protein, listed as Homo sapiens)
chain: MKTSPRRPLILKRRRLPLPVQNAPEETSEEEPKRSPAQQESNQAEASKEVAESNSCKFPAGIKIINHPTMPNTQVVAIPNNANIHSIITALTAKGKESGSSGPNKFILISCGGAPTQPPGLRPQTQTSYDAKRTEVTLETLGPKPAARDVNLPRPPGALCEQKRETCDGEAAGCTINNSLSNIQWLRKMSSDGLGSRSIKQEMEEKENCHLEQRQVKVEEPSRPSASWQNSVSERPPYSYMAMIQFAINSTERKRMTLKDIYTWIEDHFPYFKHIAKPGWKNSIRHNLSLHDMFVRETSANGKVSFWTIHPSANRYLTLDQVFKQQQKRPNPELRRNMTIKTELPLGARRKMKPLLPRVSSYLVPIQFPVNQSLVLQPSVKVPLPLAASLMSSELARHSKRVRIAPKVLLAEEGIAPLSSAGPGKEEKLLFGEGFSPLLPVQTIKEEEIQPGEEMPHLARPIKVESPPLEEWPSPAPSFKEESSHSWEDSSQSPTPRPKKSYSGLRSPTRCVSEMLVIQHRERRERSRSRRKQHLLPPCVDEPELLFSEGPSTSRWAAELPFPADSSDPASQLSYSQEVGGPFKTPIKETLPISSTPSKSVLPRTPESWRLTPPAKVGGLDFSPVQTSQGASDPLPDPLGLMDLSTTPLQSAPPLESPQRLLSSEPLDLISVPFGNSSPSDIDVPKPGSPEPQVSGLAANRSLTEGLVLDTMNDSLSKILLDISFPGLDEDPLGPDNINWSQFIPELQ
B2: S25A: FoxM1 protein with Ser25 substituted with alanine, non-phosphorylated point mutant, expressed by lentivirus in A549 cells (protein)
chain: B1 chain with E25A
modifications: left off: a dimerising Fc or GST
notes: FoxM1 protein with Ser25 substituted with alanine, non-phosphorylated point mutant, expressed by lentivirus in A549 cells

What was measured:
Jurkat cells = assay: CD25 and CD29 expression (qRT-PCR) in Jurkat cells co-cultured with A549 cells; format: cell-based; conditions: co-culture 48 h
Protocol: To investigate the polarization into tumor-infiltrating T lymphocytes (TILs) by A549^S25E cells, the expression levels of CD25 and CD29, which were expressed in TILs, were analyzed by qRT-PCR after co-culturing Jurkat cells (1.2×10^5 cells) and A549^S25E cells (4×10^4 cells) for 48 h. As a result, it was observed that there was a significant increase of 3 folds or more, in the expression of CD25 and CD29 in Jurkat cells co-cultured with A549^S25E cells. […] Additionally, to investigate the inhibitory effect of A549^S25A cells on tumor immune evasion by TAMs or TILs in the tumor microenvironment, the viability change was examined by an MTT assay analysis after co-culturing A549 cells expressing the FoxM1 phosphorylation or non-phosphorylated point mutant, THP-1 cells, and Jurkat cells at a ratio of 1:0:0, 1:6:0, 1:0:6, and 1:6:6 for 48 h. […] That is, there was the inhibitory effect of the cells expressing non-phosphorylated point mutant on the tumor immune evasion by TAMs or TILs in the tumor microenvironment. Therefore, the present invention provided the inhibitory effects of the non-phosphorylated point mutant of FoxM1 on tumor immune evasion.

A549 cells [1] = assay: MTT viability of A549 cells co-cultured with THP-1 cells; format: cell-based; conditions: ratios 1:0, 1:2, 1:4, 1:6, 48 hours
Protocol: The cell viability was measured to investigate whether the FoxM1 phosphorylation and non-phosphorylation point mutations affected the viability of lung cancer cells, after co-culturing the lung cancer cells (A549) expressing the FoxM1 phosphorylation and non-phosphorylated point mutants and monocyte THP-1 cells. A549 cells (4×10^4 cells/mL) and THP-1 cells were co-cultured at ratios of 1:0, 1:2, 1:4, and 1:6 for 48 hours, and after co-culturing for 48 h and washing off the THP-1 cells, the viability of A549 cells attached to the bottom was measured by an MTT assay.

A549 lung cancer cells = assay: Matrigel invasion assay of A549 cells expressing FoxM1 WT or point mutants; format: cell-based; conditions: for invasion of cancer cells (in words): Matrigel invasion assay, A549
Protocol: To observe the effects of the WT, phosphorylation, and non-phosphorylated point mutants of FoxM1 proteins on the invasion of cancer cells, an invasion assay using Matrigel was performed in lung cancer cells A549 expressing these mutants.
Specifically, after completely dissolving Matrigel at 4° C. for 16-20 hours, Matrigel was diluted with cold serum-free RPMI 1640 (4° C.) to 1 mg/ml. 100 μl of Matrigel mixture (1 mg/ml) was added to an […] 24-well insert and solidified in a 37° C. incubator for 12-20 hours. 1×10^5 cells/well of lung cancer cells A549 expressing each WT, phosphorylation, and non-phosphorylated point mutant FoxM1 proteins were diluted in serum-free RPMI 1640 (36° C.) and dispensed onto the insert. 0.5 ml/well of warm RPMI 1640 (10% FBS) at 36° C. was dispensed to the insert. For the positive control group, 0.5 ml of RPMI 1640 (10% FBS) containing 5 ng/ml TGF-β at 36° C. was used. The medium was changed once every 3 days, and the degree of invasion was observed. On the 7th day, when sufficient cancer cell invasion was observed, the medium was removed, washed with 1×PBS, and the cells inside the insert were scraped with a cotton swab and washed with 1×PBS to remove any remaining cells and Matrigel inside the insert. 500 μl of 4% paraformaldehyde was dispensed into the 24 wells with the outer surface of the insert, incubated at room temperature for 5 minutes, washed three times with 1×PBS, and stained with 0.05% crystal violet solution for 5 minutes. After 5 minutes, it was washed five times with 1×PBS and dissolved in DMSO. The degree of staining was determined by measuring the absorbance at 590 nm.
Specifically, Matrigel was completely solved at 4° C. for 16-20 hours and diluted to 1 mg/ml in cold serum free RPMI 1640 (4° C.). 100 μl of Matrigel mixture (1 mg/ml) was added into […] 24-well insert and solidified in a 37° C. incubator for 12-20 hours. A549 lung cancer cells expressing Mock or the experimental group FoxM1 WT protein were dispensed on the solidified Matrigel insert with 1×10^5 cells/well diluted in serum free RPMI 1640 (36° C.), and 0.5 ml/well of 36° C. of warm RPMI 1640 (10% FBS) were dispensed. For the positive control group, 0.5 ml of 36° C. RPMI 1640 (10% FBS) containing 5 ng/ml of TGF-β were dispensed. Then, once in 3 days, the medium was changed, and the level of invasion was observed. […] 500 ul of 4% paraformaldehyde was dispensed into 24 wells where the outer surface of the insert was placed, incubated for 5 minutes at room temperature, washed three times with 1×PBS, and stained with 0.05% crystal-violet solution for 5 minutes. After 5 minutes, they were washed 5 times with 1×PBS, and the degree of staining was dissolved in DMSO, and the wavelength was measured at 590 nm.

A549 cells [2] = assay: Viability of A549 cells co-cultured with Jurkat cells; format: cell-based
From the text: In addition, through the co-culture of the A549 cells expressing the FoxM1 S25E phosphorylated point mutant (A549^S25E) and Jurkat cells as T cells, it was tried to examine the effects on cancer immunity of T cells (FIG. 7D).

lung tissues = assay: CD68 and CD163 immunostaining and immunoblot of lung tissues of injected mice; format: in vivo; conditions: for protein expression of CD68 and CD163, immunoblot: lung tissue lysates
Protocol: Additionally, the increase of macrophages around the tumor was examined by immunoblot using lung tissue lysates. […] Through the results of this study, it could be observed that the non-phosphorylated point mutant had the effect of inhibiting polarization into tumor-associated macrophages.
Furthermore, CD68, a marker for a broad range of macrophages, and CD163, a marker for tumor-associated macrophages, were analyzed in lung tissues of mice using immunostaining. It was determined that the expression of both CD68 and CD163 markers was increased in the lung tissues of mice injected with the FoxM1 WT protein over-expressed cells (FIG. 13D). Through the present results, it could be observed that there was an effect of promoting the polarization of M2 tumor-associated macrophages in lung cancer cells expressing the FoxM1 WT protein.

| Molecule | expression of CD25 and CD29 in Jurkat cells (Jurkat cells) [folds] | viability of A549 cells co-cultured with THP-1 cells (A549 cells [1]) | invasion of cancer cells (in words) (A549 lung cancer cells) | absorbance value at 590 nm (invasion) compared to the control group (A549 lung cancer cells; Matrigel, 7th day, control set to 1) [times] | viability of A549 cells co-cultured with Jurkat cells (A549 cells [2]; ratio 1:2, 48 h) [folds] | viability of A549 cells co-cultured with Jurkat cells (A549 cells [2]; ratio 1:4, 48 h) [folds] | viability of A549 cells co-cultured with Jurkat cells (A549 cells [2]; ratio 1:6, 48 h) [folds] | protein expression of CD68 and CD163, immunoblot (lung tissues) | expression of CD68 and CD163 markers, immunostaining (lung tissues; lung tissues of injected mice) | expression of CD25 and CD29 in Jurkat cells (in words) (Jurkat cells) | invasion of cancer cells (in words) (A549 lung cancer cells; listed as FoxM1 non-phosphorylated point mutant) | invasion of cancer cells (in words) (A549 lung cancer cells; listed as non-phosphorylated point mutant protein of FoxM1) | viability of A549 cells co-cultured with Jurkat cells (in words) (A549 cells [2]; compared to WT or phosphorylation mutant, 48 h) | expression of CD68 and CD163 markers, immunostaining (in words) (lung tissues; lung tissues of injected mice) |
| --- | --- | --- | --- | --- | --- | --- | --- | --- | --- | --- | --- | --- | --- | --- |
| B1 | ≥ 3 | gradually increased | highest cancer cell invasion | ~40 | 1.2 | 1.3 | 1.5 | significantly higher | approximately 3 times |  |  |  |  |  |
| B2 |  | not changed compared to the control group |  |  |  |  |  | lower |  | significantly inhibiting effect | lower relative absorbance | reduced | significantly decreased | significantly low |

Reference: patent US20250340881A1, “PHARMACEUTICAL COMPOSITION FOR TREATING CANCER COMPRISING FOXM1 MUTANT OR FOXM1 SHRNA” (Industry-University Cooperation Foundation Hanyang …, priority 2022, published 2025)
